The record followed here is patent US20030199071A1 (published 2003).

The target of this experiment is FimH Q133A (E. coli, UniProt P08191 22-300). As to the kind of experiment: co-expression with FimC in E. coli; data not shown.

B1: FimC (wild type periplasmic chaperone of E. coli type 1 pili) (other)
chain: GVALGATRVIYPAGQKQVQLAVTNNDENSTYLIQSWVENADGVKDGRFIVTPPLFAMKGKKENTLRILDATNNQLPQDRESLFWMNVKAIPSMDKSKLTENTLQLAIISRIKLYYRPAKLALPPDQAAEKLRFRRSANSLTLINPTPYYLTVTELNAGTRVLENALVPPMGESTVKLPSDAGSNITYRTINDYGALTPKMTGVME
notes: also called FimC alone; wild type FimC
As to B1, the binding result is “binds”.
